Data as given in patent US20040024191, “Multimerized DBH enhancer domains” (published 2004).

Target: His6-Phox2a (1-149) (Mus musculus, UniProt Q62066 Q62066:1-149)
Experiment: footprint; DNase I footprint
Conditions: tags: N-terminal His6, pET15b, E. coli BL21(DE3); label: 32P

Sequence of His6-Phox2a (1-149) (Q62066 1-149, one chain of several): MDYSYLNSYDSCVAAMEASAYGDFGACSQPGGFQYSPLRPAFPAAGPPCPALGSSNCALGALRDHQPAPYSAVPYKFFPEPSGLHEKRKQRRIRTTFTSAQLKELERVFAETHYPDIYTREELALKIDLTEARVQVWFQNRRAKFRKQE

B1: PBS3 (dsDNA)
DNA 1: GAGGGAAAATTGGATTCCCCG
DNA 2: CGGGGAATCCAATTTTCCCTC
  binding result: binds
